Data published in patent US20220363762A1, “METHODS AND COMBINATIONS FOR THE TREATMENT OF CANCER USING IMMUNE CHECKPOINT INHIBITOR ANTIBODIES” (ASTRAZENECA AB, priority 2020, published 2022).

Assays:
Assay type in all cases: in vivo, human
[1] = tested on: advanced HCC; experiment: Randomized, open-label, multi-center clinical study of durvalumab and tremelimumab (Example 2): efficacy; conditions: for ORR, % / Median (95% CI) OS, mo: Table 1, per study arm; for Median (95% CI) OS, mo: 95% CI in cell beside; for Median PFS (95% CI): patients with advanced HCC
Method: The study disclosed below is a randomized, open-label, multi-center, global, clinical study to assess the efficacy and safety of durvalumab monotherapy and durvalumab plus tremelimumab combination therapy versus sorafenib in the treatment of immune checkpoint inhibitor-naïve patients with HCC who progressed on, were intolerant to, or refused sorafenib. In the foregoing disclosure, a flat-dose regimen of 1500 mg (approximately equivalent to 20 mg/kg) of durvalumab plus 300 mg (equivalent to 4 mg/kg) of tremelimumab was used in this study.
The study population included patients 18 years of age or older with advanced HCC, Barcelona Clinic Liver Cancer Stage B (not eligible for locoregional therapy) or stage C, and Child-Pugh A classification liver disease. Patients must not have received any prior systemic therapy for HCC. Patients were stratified according to macrovascular invasion (yes versus no), etiology of liver disease (hepatitis B virus [confirmed HBV] versus hepatitis C virus [confirmed HCV] versus others), and performance status (Eastern Cooperative Oncology Group [ECOG] 0 versus 1).
A total of 332 patients were enrolled (T300+D, n=75; durvalumab, n=104; tremelimumab, n=69; T75+D, n=84). Patients were randomized in an equal ratio to groups treated with durvalumab 1500 mg monotherapy (D), tremelimumab 750 mg monotherapy (T), combination therapy with durvalumab 1500 mg plus tremelimumab 75 mg×4 doses (T75+D) followed by durvalumab Q4W, combination therapy with durvalumab 1500 mg plus tremelimumab 300 mg xl dose (T 300+D) followed by durvalumab Q4W. Upon closure to further enrollment into the T75+D arm, patients were randomized in an equal ratio to groups treated with D, T300+D, and Sorafenib. Durvalumab and tremelimumab were administered via intravenous (IV) infusion every 4 weeks (Q4W). Sorafenib was administered orally BID (see FIGS. 3 and 4).
Tremelimumab 750 mg via IV infusion Q4W starting at Week 0 for seven doses and then Q12W until confirmed PD, unacceptable toxicity, or any discontinuation criterion was met. (Note: If a patient's weight decreased to ≤30 kg, the patient received weight-based dosing of tremelimumab 10 mg/kg Q4W, until the weight increased to >30 kg, at which point the patient received the flat dose of tremelimumab 750 mg Q4W).
Durvalumab 1500 mg monotherapy • Durvalumab 1500 mg via IV infusion Q4W starting at Week 0 until confirmed PD, unacceptable toxicity, or any discontinuation criterion was met. (Note: If a patient's weight decreased to ≤30 kg, the patient received weight-based dosing of durvalumab 20 mg/kg Q4W, until the weight increased to >30 kg, at which point the patient received the flat dose of durvalumab 1500 mg Q4W.)
Durvalumab 1500 mg plus tremelimumab 75 mg×4 doses combination therapy (Arm B) • Durvalumab 1500 mg plus tremelimumab 75 mg×4 doses starting at Week 0, followed by durvalumab 1500 mg monotherapy Q4W starting 4 weeks after the final infusion of the combination therapy until confirmed PD, unacceptable toxicity, or any discontinuation criteria was met. (Note: If a patient's weight decreased to 30 kg or below (≤30 kg), the patient received weight-based dosing of durvalumab 20 mg/kg Q4W and tremelimumab 1 mg/kg Q4W, until the weight increased to >30 kg, at which point the patient received the original assigned flat dose of durvalumab 1500 mg Q4W with or without tremelimumab 75 mg Q4W.)
Durvalumab 1500 mg plus tremelimumab 300 mg×1 dose combination therapy (Arm C) • Durvalumab 1500 mg plus tremelimumab 300 mg×1 dose starting at Week 0, followed by durvalumab 1500 mg monotherapy Q4W starting 4 weeks after the first and final infusion of the combination therapy until confirmed PD, unacceptable toxicity, or any discontinuation criteria was met. […]

[2] = tested on: peripheral blood T cell receptors (TCRs); experiment: Molecular analysis of peripheral blood T cell receptors (TCR clonal expansion); conditions: for Median expanded T cell clones at Day 29, n: Day 29, first cycle of Q4W dosing, spread in cell beside
Source text: This trend was not seen with monotherapy D or the lower dose T combination (T75+D) (FIG. 15). Additionally, greater clonal expansion of T-cells was associated with better OS and seen in D+T combination arms (FIG. 16).

[3] = Tremelimumab trough concentration after the first dose (Cmin); conditions: 300 mg tremelimumab
Method: (§1) Finally, an exposure-response model was developed to describe the relationship between tremelimumab exposure and proliferating CD8+Ki67+ T cells in patients with uHCC. Relationships between tremelimumab trough concentration after the first dose (Cmin) and the maximum change from baseline (CFB) for CD8+ Ki67+ T cell counts were evaluated using linear and non-linear regression models. Covariate effects were evaluated on the model intercept and the drug effect (Emax) using a stepwise search approach. The relationship between CD8+ Ki67+ T cell count CFB and tremelimumab trough concentration was best described by an Emax model. The only statistically significant and well estimated covariate effect was the baseline CD8+ Ki67+ T cell count on Emax. The maximum effect was higher in patients with lower baseline CD8+ Ki67+ T cell counts and lower in patients with higher baseline CD8+ Ki67+ T cell counts. At the 10th, median, and 90th percentiles of baseline CD8+ (3, 9, and 25 cells/uL), the maximum effect is 593%, 341%, and 77.9% change from baseline, respectively.

[4] = tested on: proliferating CD8+Ki67+ T cells; experiment: Exposure-response model: tremelimumab exposure versus proliferating CD8+Ki67+ T cells
Method: as §1

Molecule	ORR, % [1] [%]	Median (95% CI) OS, mo [1] [mo]	Median PFS (95% CI) [1]	clonal expansion of T cells in responders compared to non-responders ([2]; Day 29)	Median expanded T cell clones at Day 29, n [2]	median increased T-cell clonal expansion, difference between arms ([2]; day 29, D versus T75+D arms)	median Cmin [3] [ng/mL]	maximum effect (Emax), change from baseline of CD8+ Ki67+ T cell count ([4]; 10th percentile of baseline CD8+ (3 cells/uL)) [%]	maximum effect (Emax), change from baseline of CD8+ Ki67+ T cell count ([4]; 90th percentile of baseline CD8+ (25 cells/uL)) [%]	estimated half-maximal effective concentration (EC50) ([4]; Emax model, Cmin versus maximum change from baseline of CD8+ Ki67+ T cell counts, uHCC patients) [µg/mL]	maximum effect (Emax), change from baseline of CD8+ Ki67+ T cell count ([4]; median baseline CD8+ (9 cells/uL)) [%]
Durvalumab [reference compound]	10.6	13.6	2.07 (1.84-2.83) months	not seen	32	no significant difference					
Tremelimumab (antibody, light chain variable region; heavy chain variable region, anti-CTLA-4 antibody; arm T = tremelimumab 750 mg monotherapy) VL: PSSLSASVGDRVTITCRASQSINSYLDWYQQKPGKAPKLLIYAASSLQSGVPSRFSGSGSGTDFTLTISSLQPEDFATYYCQQYYSTPFTFGPGTKVEIKRTVAAPSVFIFPPSDEQLKSGTASVVCLLNNFYPREAKV VH: GVVQPGRSLRLSCAASGFTFSSYGMHWVRQAPGKGLEWVAVIWYDGSNKYYADSVKGRFTISRDNSKNTLYLQMNSLRAEDTAVYYCARDPRGATLYYYYYGMDVWGQGTTVTVSSASTKGPSVFPLAPCSRSTSESTAALGCLVKDYFPEPVTVSWNSGALTSGVH	7.2	15.1	2.69 (1.87-5.29) months		100		12900	593	77.9	5.24	341
